The source of these data is PMC10257657 (Nature Communications, 2023).

The series concerns the molecule itself. Nature of the series: AUC; analytical ultracentrifugation of VibO (Supplementary Fig. 24b); conditions not shown.

Broadly, the stoichiometry N is the number of molecules, sites or subunits per partner or assembly.

B1: VibO, NADPH/FAD-dependent monooxygenase (oxepinone-forming enzyme) of Boreostereum vibrans (enzyme)
chain: MAAVENFEGYVEPELFERPGTSLPNKLGVMPQLTWPNVLNGTNCEKPAVPNYKPPSKVDVIIIGAGPVGLTTAACLLRQGITVRILDRSPHPLPVGRADGLQPRSMEVFDLLGLGEEVYHVGIRVEHTTVYKDGKQHIFAESHQAPGNEAHYTGLHACTQTEVEHLLIRDLIRHDILVERPCTATSYTFDEEADASVTHPITVNITNEATGAEEVVTARFLVGSDGAHSMIRKSLPIEFPGVKTDLHWGIVDAVINSDFPHRWTFGTVLNSEYGGCLIIPRERNMVRLYVQLRAEPGKAFDHSKWGPEEILVILNKVFAPYTLSYAEPVDWYTILTINERVATSFTYKDRIFLAGDSCHVHSAKGAFGMNTGVMDAHNLAWKLAMLCRGIAKPSLLASYDVERRENALRAVATSARYLRFVGNCTFQAIDGSGEVDKEADELVVPPGEDKDVFYFKKFVGQVGRFLIGLDVDYAENALNKLSPAVSRARAGYRASNPRVALSRSHSGRLYHSFGHLGQFTLLVFASNMGGALNAKLHALDSYLAGPSSFYHAYGGADTFKIVVVVRATPSQADQRVKTFPFLSKAGHTVYDDQLPLSHFGGDAHALYGVSHEEGAIVVVRPDSWIGTSSTISDARSLESYFDGFLFKSTEGSY
For B1, the “stoichiometry N” value stood at 2.
